Laboratory results taken from patent US20250339569A1 (3B PHARMACEUTICALS, published 2025).
Starred links: 1 amine or outer side, 2 acyl side, 3 side chain; linkers in the order of their positions; H or OH if unused. Positions of bridges follow the written chain, without caps; N, C: chain ends. Non-standard residues stand in square brackets, D forms with d. Primed or numbered codes have the meaning given here. No end group written: not given here. ξ: configuration not given here. *: point of attachment. Af3(MCprAc) = 3-aminophenylalanine with 1-methylcyclopropane-1-carbonyl on the ring amine, CC1(C(=O)Nc2cccc(C[C@H](N[*:1])C(=O)[*:2])c2)CC1; Af3(HO-Succinyl) = 3-aminophenylalanine with succinyl (free acid) on the ring amine, O=C(CCC(=O)[*:3])Nc1cccc(C[C@H](N[*:1])C(=O)[*:2])c1; Af3(MSAc) = 3-aminophenylalanine with 2-methanesulfonylacetyl on the ring amine, CS(=O)(=O)CC(=O)Nc1cccc(C[C@H](N[*:1])C(=O)[*:2])c1; Af3(Iva) = 3-aminophenylalanine with isovaleryl on the ring amine, CC(C)CC(=O)Nc1cccc(C[C@H](N[*:1])C(=O)[*:2])c1; Af3(Prp) = 3-aminophenylalanine with propionyl on the ring amine, CCC(=O)Nc1cccc(C[C@H](N[*:1])C(=O)[*:2])c1; APAc″ = 2-(4-(amino)piperidin-1-yl)acetic acid, NC1CCN(CC(=O)*)CC1; DOTA = O=C(O)CN1CCN(CC(=O)O)CCN(CC(=O)*)CCN(CC(=O)O)CC1; Phe(3,4-Cl2) = N[C@@H](Cc1ccc(Cl)c(Cl)c1)C(=O)O; Phe(3-CF3) = N[C@@H](Cc1cccc(C(F)(F)F)c1)C(=O)O; Phe(4-CF3) = N[C@@H](Cc1ccc(C(F)(F)F)cc1)C(=O)O; Trp(7-aza) = N[C@@H](Cc1c[nH]c2ncccc12)C(=O)O; ξTrp(7-Me) = Cc1cccc2c(CC(N)C(=O)O)c[nH]c12; Bip = N[C@@H](Cc1ccc(-c2ccccc2)cc1)C(=O)O; PPAc = 4-carboxymethyl piperazine linker; ξTrp(1-Me) = Cn1cc(CC(N)C(=O)O)c2ccccc21; Dip = N[C@H](C(=O)O)C(c1ccccc1)c1ccccc1; Phe(4-I) = N[C@@H](Cc1ccc(I)cc1)C(=O)O; mXylylene = c1cc(C[*:1])cc(C[*:2])c1; Orn(Me2) = CN(C)CCC[C@H](N)C(=O)O; tBuAla = CC(C)(C)C[C@H](N)C(=O)O; Cha = N[C@@H](CC1CCCCC1)C(=O)O; NMeD = CN[C@@H](CC(=O)O)C(=O)O; 3Amb = NCc1cccc(C(=O)O)c1; 4Amb = NCc1ccc(C(=O)O)cc1; hSer = N[C@@H](CCO)C(=O)O; AGLU′ = not defined here; 4Amc = not defined here; APAc = not defined here; Inp′ = not defined here; Cmp = not defined here; Dap = NC[C@H](N)C(=O)O

B1: 3BP-4253 (peptide)
peptide: {DOTA}-DCE[dP]DWLTW[Dap]C-NH2
modifications: lactam 10-1; linker 2-11 via mXylylene
SMILES: CC(C)C[C@@H]1NC(=O)[C@H](Cc2c[nH]c3ccccc23)NC(=O)[C@H](CC(=O)O)NC(=O)[C@H]2CCCN2C(=O)[C@H](CCC(=O)O)NC(=O)[C@@H]2CSCc3cccc(c3)CSC[C@@H](C(N)=O)NC(=O)[C@H](CNC(=O)C[C@H](NC(=O)CN3CCN(CC(=O)O)CCN(CC(=O)O)CCN(CC(=O)O)CC3)C(=O)N2)NC(=O)[C@H](Cc2c[nH]c3ccccc23)NC(=O)[C@H]([C@@H](C)O)NC1=O
B2: 3BP-4178 (peptide)
peptide: [dP]PVYCE[dP]DWLTWSC
modifications: linker 5-14 via mXylylene; not fully specified (bridges)
notes: Bracket use differs from the other compounds; the outer cycle is read as closing pro1 with Cys14
B3: 3BP-4257 (peptide)
peptide: {DOTA}-SDCE[dP]DWLTW[Dap]C-NH2
modifications: lactam 11-2; linker 3-12 via mXylylene
SMILES: CC(C)C[C@@H]1NC(=O)[C@H](Cc2c[nH]c3ccccc23)NC(=O)[C@H](CC(=O)O)NC(=O)[C@H]2CCCN2C(=O)[C@H](CCC(=O)O)NC(=O)[C@@H]2CSCc3cccc(c3)CSC[C@@H](C(N)=O)NC(=O)[C@H](CNC(=O)C[C@H](NC(=O)[C@H](CO)NC(=O)CN3CCN(CC(=O)O)CCN(CC(=O)O)CCN(CC(=O)O)CC3)C(=O)N2)NC(=O)[C@H](Cc2c[nH]c3ccccc23)NC(=O)[C@H]([C@@H](C)O)NC1=O
B4: 3BP-4260 (peptide)
peptide: {DOTA-3Amb}-DCE[dP]DWLTW[Dap]C-NH2
modifications: lactam 10-1; linker 2-11 via mXylylene
SMILES: CC(C)C[C@@H]1NC(=O)[C@H](Cc2c[nH]c3ccccc23)NC(=O)[C@H](CC(=O)O)NC(=O)[C@H]2CCCN2C(=O)[C@H](CCC(=O)O)NC(=O)[C@@H]2CSCc3cccc(c3)CSC[C@@H](C(N)=O)NC(=O)[C@H](CNC(=O)C[C@H](NC(=O)c3cccc(CNC(=O)CN4CCN(CC(=O)O)CCN(CC(=O)O)CCN(CC(=O)O)CC4)c3)C(=O)N2)NC(=O)[C@H](Cc2c[nH]c3ccccc23)NC(=O)[C@H]([C@@H](C)O)NC1=O
B5: 3BP-4261 (peptide)
peptide: {DOTA-4Amb}-DCE[dP]DWLTW[Dap]C-NH2
modifications: lactam 10-1; linker 2-11 via mXylylene
SMILES: CC(C)C[C@@H]1NC(=O)[C@H](Cc2c[nH]c3ccccc23)NC(=O)[C@H](CC(=O)O)NC(=O)[C@H]2CCCN2C(=O)[C@H](CCC(=O)O)NC(=O)[C@@H]2CSCc3cccc(c3)CSC[C@@H](C(N)=O)NC(=O)[C@H](CNC(=O)C[C@H](NC(=O)c3ccc(CNC(=O)CN4CCN(CC(=O)O)CCN(CC(=O)O)CCN(CC(=O)O)CC4)cc3)C(=O)N2)NC(=O)[C@H](Cc2c[nH]c3ccccc23)NC(=O)[C@H]([C@@H](C)O)NC1=O

Biological target: human carbonic anhydrase 9 (CAIX) (human, UniProt Q16790 38-459)
Assay: FACS competition on HT-29 cells, competitor tracer 3BP-2776; category A = pIC50 >8.0
Description: CAIX-expressing human HT-29 colorectal cancer cells (DSMZ, RRID: CVCL_0320) were cultured in McCoys's 5A modified medium (Biochrom, #F1015) including 10% fetal calf serum (FCS), 2 mM L-glutamine, 100 U/ml penicillin and 100 μg/mL streptomycin. Cells were detached with Accutase (Biolegend, #423201) and washed in FACS buffer (PBS including 1% FCS). Cells were diluted in FACS buffer to a final concentration of 500.000 cells per ml. 200 μL of the cell suspension were transferred to a u-shaped non-binding 96-well plate (Greiner) and cells were washed in ice-cold FACS buffer.
When biotinylated compounds were used an additional incubation step with 1 μg/mL APC-Streptavidin (Miltenyi; #130-106-791) in 50 μL FACS buffer for 30 minutes on ice was performed.
Cells were washed twice with ice-cold FACS buffer and analyzed in an Attune NxT flow cytometer (Thermo Fisher). Median fluorescence intensities (MFI) of the APC/Cy5-channel were calculated by Attune NxT software.

pIC50, > 8 pic50:
{DOTA-APAc″}-VYCE[dP]D[Af3(Prp)]LTWSC-NH2 (linker 3-12 via mXylylene) [3BP-4235], {DOTA-Inp′}-DCE[dP]DWLTW[Dap]C-NH2 (lactam 10-1; linker 2-11 via mXylylene) [3BP-4256], {DOTA-APAc}-VYCE[dP]D[Phe(4-I)]LTWSC-NH2 (linker 3-12 via mXylylene; not fully specified; reading uncertain) [3BP-4134], {DOTA-4Amc}-DCE[dP]DWLTW[Dap]C-NH2 (lactam 10-1; linker 2-11 via mXylylene; reading uncertain) [3BP-4258], {DOTA-APAc″}-VYCE[dP]D[Af3(Iva)]LTWSC-NH2 (linker 3-12 via mXylylene) [3BP-4236], {DOTA-APAc}-VYCE[dP]D[Phe(3,4-Cl2)]LTWSC-NH2 (linker 3-12 via mXylylene; not fully specified; reading uncertain) [3BP-4133], {DOTA-APAc}-VYCE[dP]D[Dip]LTWSC-NH2 (linker 3-12 via mXylylene; not fully specified; reading uncertain) [3BP-4132], {DOTA-APAc″}-VYCE[dP]DW[tBuAla]TWSC-NH2 (linker 3-12 via mXylylene) [3BP-4142], B1, {DOTA-APAc″}-DCE[dP]DWLTW[Dap]C-NH2 (lactam 10-1; linker 2-11 via mXylylene) [3BP-4254], {DOTA-APAc}-VYCE[dP]D[Phe(3-CF3)]LTWSC-NH2 (linker 3-12 via mXylylene; not fully specified; reading uncertain) [3BP-4135], {DOTA-APAc″}-VYCE[dP]DW[Cha]TWSC-NH2 (linker 3-12 via mXylylene) [3BP-4143], B2, {DOTA-APAc}-VYC[hSer][dP]DWLTWSC-NH2 (linker 3-12 via mXylylene; reading uncertain) [3BP-4101], {DOTA-APAc″}-VYCE[dP]DWLT[Trp(7-aza)]SC-NH2 (linker 3-12 via mXylylene) [3BP-4159], {DOTA-APAc″}-VYCE[dP]D[Af3(MSAc)]LTWSC-NH2 (linker 3-12 via mXylylene) [3BP-4242], {DOTA-APAc″}-VDCE[dP]DWLTW[Dap]C-NH2 (lactam 2-11; linker 3-12 via mXylylene) [3BP-4174], {DOTA-APAc}-VYCE[dP]DWLTW[Orn(Me2)]C-NH2 (linker 3-12 via mXylylene; reading uncertain) [3BP-4100], B3, {DOTA-APAc″}-VECE[dP]DWLTW[Dap]C-NH2 (lactam 2-11; linker 3-12 via mXylylene) [3BP-4175], {DOTA-APAc″}-VYCE[dP]D[Af3(HO-Succinyl)]LTWSC-NH2 (linker 3-12 via mXylylene) [3BP-4237], {DOTA-APAc}-VYCE[dP][NMeD]WLTWSC-NH2 (linker 3-12 via mXylylene; reading uncertain) [3BP-4107], {DOTA-APAc″}-VYCE[dP]D[Af3(MCprAc)]LTWSC-NH2 (linker 3-12 via mXylylene) [3BP-4234], {DOTA-APAc″}-VYCE[dP]D[ξTrp(1-Me)]LTWSC-NH2 (linker 3-12 via mXylylene; not fully specified) [3BP-4144], {DOTA-APAc}-VYCE[dP]D[Phe(4-CF3)]LTWSC-NH2 (linker 3-12 via mXylylene; not fully specified; reading uncertain) [3BP-4139], {DOTA-APAc}-VYCE(AGLU′)[dP]DWLTWSC-NH2 (linker 3-12 via mXylylene; reading uncertain) [3BP-4113], {DOTA-APAc″}-VYCE[dP]D[ξTrp(7-Me)]LTWSC-NH2 (linker 3-12 via mXylylene; not fully specified) [3BP-4158], B4, B5, {DOTA-PPAc}-DCE[dP]DWLTW[Dap]C-NH2 (lactam 10-1; linker 2-11 via mXylylene) [3BP-4255], {DOTA-APAc}-VYCE[dP]D[Bip]LTWSC-NH2 (linker 3-12 via mXylylene; not fully specified; reading uncertain) [3BP-4131], {DOTA-Cmp}-DCE[dP]DWLTW[Dap]C-NH2 (lactam 10-1; linker 2-11 via mXylylene; reading uncertain) [3BP-4259]
